B1: KCNA4 (parent)
chain: YQLGEEALLKFREDEGFVREEEDR
B2: SLC35F2 (parent)
chain: FVAFALCMFCLYSFMPLVIKVTSA

Variants of: B1
Assay: protein stability index of a GFP-peptide fusion (GPS, HEK-293T) (PSI 1-6); higher = more stable
Details: c terminus: a fixed tail appended
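Further: lentivirally expressed fusions sorted by FACS into six bins by GFP to DsRed ratio, PSI derived from sequencing read proportions per bin multiplied by bin number.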

Variant | protein stability index
F11G | 5.61
Q2I | 4.43
Q2E | 5.37
A7L | 4.8
A7N | 4.82
A7V | 4.33
K10V | 2.88
K10D | 5.55
L9R | 4.41
L9M | 4.84
D23F | 4.14
D23L | 3.97
F17R | 4.13
F17C | 4.88
F17T | 4.5
L8Q | 5.65
L8W | 3.55
L8M | 4.56
L8H | 5.62
R12A | 4.41
R12L | 4.4
R12F | 4.62
R12I | 4.15

Variant | protein stability index
L3P | 5.28
L3T | 5.31
Y1V | 5.58
Y1R | 5.81
E13R | 4.54
R24G | 4.79
R24S | 4.65
R24D | 4.71
E15A | 3.83
E15V | 3.8
E15P | 3.99
E15I | 3.83
E15L | 3.88
G16H | 4.8
G16I | 4.61
E21A | 4.45
E21P | 4.65
E22G | 4.23
E22Q | 4.25
E5F | 2.93
E5D | 4.97
E5C | 4.32

Variants of: B2
Assay: as above
Details: c terminus: a fixed tail appended

Variant | protein stability index
Y12T | 2.68
Y12A | 3.98
Y12P | 2.25
Y12M | 2.75
Y12F | 2.54
Y12K | 2.74
Y12Q | 3.48
Y12I | 2.31
Y12S | 3.08
Y12R | 2.29
Y12E | 3.32
Y12H | 2.47
Y12D | 1.79
Y12W | 2.76
Y12V | 2.74
Y12G | 3.85
Y12N | 3.2
Y12L | 2.5
Y12C | 2.32
V21I | 2.6
V21M | 3.27
V21W | 3.02
V21Q | 1.85
V21L | 2.06
V21Y | 3.26

Variant | protein stability index
V21H | 2.9
V21S | 3.11
V21R | 2.38
V21N | 4.29
V21P | 2.76
V21C | 1.7
V21F | 2.01
V21E | 3.06
V21A | 2.26
P16T | 2.05
P16A | 3.6
P16C | 3.1
P16M | 1.92
P16W | 2.66
P16Y | 4.47
P16R | 2.79
P16D | 2.99
P16S | 3.48
P16L | 2.86
P16Q | 2.65
P16V | 1.69
P16H | 3.01
P16E | 1.85
P16G | 2.85
P16K | 2.06

Variant | protein stability index
P16N | 3.51
P16I | 2.99
P16F | 2.59
K20I | 2.63
K20H | 1.78
K20Y | 2.76
K20F | 2.03
K20S | 2.55
K20D | 2.22
K20E | 2.71
K20C | 3.38
K20R | 3.56
K20T | 3.12
K20M | 2.62
K20L | 3.04
K20A | 2.95
K20N | 3.16
K20P | 2.56
K20G | 2.9
K20Q | 3.38
K20V | 2.56
S13H | 3.26
S13W | 2.54
S13T | 2.97
S13R | 3.03

Variant | protein stability index
S13K | 3.34
S13Q | 2.36
S13I | 3.95
S13F | 2.8
S13V | 3.39
S13D | 4.24
S13C | 2.62
S13A | 2.08
S13L | 3.22
S13M | 2.54
S13P | 2.15
S13G | 3.42
S13E | 3.17
S13N | 3.33
S13Y | 2.33
M8T | 2.72
M8P | 2.4
M8S | 3.3
M8Q | 2.57
M8W | 3.65
M8Y | 3.31
M8V | 3.38
M8R | 3.49
M8N | 3.69
S23G | 3.19

Variant | protein stability index
S23D | 2.85
S23A | 2.39
S23Q | 2.39
S23Y | 2.03
S23C | 2.9
S23P | 2.96
S23F | 3.51
S23R | 2.78
S23E | 2.49
S23W | 2.54
S23K | 2
S23L | 2.89
S23T | 2.71
S23I | 2.45
F14E | 2.86
F14I | 3.99
F14D | 3.53
F14P | 2.46
F14A | 2.78
F14L | 3.56
F14C | 2.43
F14S | 3.81
